The target of the assay is T1, recombinant mouse TfR extracellular domain protein (Mus musculus, UniProt Q62351).
T1 construct: transferrin receptor (TfR), mouse, extracellular domain; also called transferrin receptor; source: recombinant, prepared in our lab
The experiment in a line: ELISA; indirect ELISA; half-area plates coated with 50 ng/well recombinant mouse TfR extracellular domain in PBS overnight at 4 °C, blocked with 1% BSA; serial dilutions of scFvs 2 h at RT in PBS with 0.1% BSA and 0.05% Tween-20; detected by mouse anti-Strep-Tag II and HRP goat anti-mouse. As to conditions: both partners purified.

Substitutions are numbered along the chain they refer to. Numbers in names are those of the source.

T1 sequence (Q62351 89-763): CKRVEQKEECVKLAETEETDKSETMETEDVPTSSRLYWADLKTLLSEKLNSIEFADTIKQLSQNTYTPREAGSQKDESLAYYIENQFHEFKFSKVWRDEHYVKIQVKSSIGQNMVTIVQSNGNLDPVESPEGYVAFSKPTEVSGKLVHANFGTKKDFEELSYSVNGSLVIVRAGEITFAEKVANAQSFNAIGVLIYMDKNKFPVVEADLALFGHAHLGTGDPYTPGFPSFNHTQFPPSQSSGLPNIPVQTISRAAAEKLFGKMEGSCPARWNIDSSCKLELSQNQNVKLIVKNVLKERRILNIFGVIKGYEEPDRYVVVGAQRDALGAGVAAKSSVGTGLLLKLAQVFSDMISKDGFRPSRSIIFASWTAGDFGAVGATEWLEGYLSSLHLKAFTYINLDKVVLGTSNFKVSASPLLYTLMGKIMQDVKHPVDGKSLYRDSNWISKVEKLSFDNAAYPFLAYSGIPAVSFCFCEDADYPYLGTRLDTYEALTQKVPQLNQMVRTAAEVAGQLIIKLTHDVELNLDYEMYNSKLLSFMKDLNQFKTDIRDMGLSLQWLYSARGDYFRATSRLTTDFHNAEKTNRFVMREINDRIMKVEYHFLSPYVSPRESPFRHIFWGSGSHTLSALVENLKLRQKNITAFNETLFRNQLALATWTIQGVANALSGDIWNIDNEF

B1: HS(−)scFv8D3 mutant (K42Q_K43Q and K243Q_R244Q) (scFv, V domains shown)
VH: EVQLVESGGGLVQPGNSLTLSCVASGFTFSNYGMHWIRQAPQQGLEWIAMIYYDSSKMNYADTVKGRFTISRDNSKNTLYLEMNSLRSEDTAMYYCAVPTSHYVVDVWGQGVSVTVSS
VL: DIQMTQSPASLSASLEEIVTITCQASQDIGNWLAWYQQKPGKSPQLLIYGATSLADGVPSRFSGSRSGTQFSLKISRVQVEDIGIYYCLQAYNTPWTFGGGTKLELQ
notes: as the heavy chain variable domain of m1 with the stated changes; numbers count on: the whole scFv8D3 chain; linker, printed as SGSTS (G4S)3; as the light chain variable domain of m1 with the stated changes; Same tag, linkers and signal peptide as m1; also called HS minus mutant; source: Expi293 cells, transfected, purified from supernatant (Strep-Tactin XT)
B1: the binding result is “binds”.

B2: HS(+)scFv8D3 mutant (S75K and P176K) (scFv, V domains shown)
VH: B1 VH with Q42K, Q43K, S75K
VL: B1 VL with P40K, Q107K
notes: as the heavy chain variable domain of m1 with the stated change; numbers count on: the whole scFv8D3 chain; linker, printed as SGSTS (G4S)3; as the light chain variable domain of m1 with the stated change; Same tag, linkers and signal peptide as m1; That S75 lies in the first domain and P176 in the second is worked out from the residue numbers; also called HS plus mutant; source: Expi293 cells, …
On to B2, for which the binding result is listed as “binds”.

The record behind these values is PMC9744743, “Introducing or removing heparan sulfate binding sites does not alter brain uptake of the blood–brain barrier shuttle scFv8D3” (Scientific Reports, 2022).
